From patent US20230391826A1 (SANFORD BURNHAM PREBYS MEDICAL DISCOVERY INSTITUTE, published 2023)
Read-outs that look alike come from different tables or passages of the source. Where no end group is shown, it is not given here. [ ]: non-standard residue; d: D form. The star is where a group is joined. Biotin = O=C1N[C@H]2[C@H](CS[C@H]2CCCCC(=O)*)N1; βAla = NCCC(=O)O; Cam = NC(=O)C*

Columns and labels:
[1] = target: T1, EphA2 extracellular domain fused to the Fc portion of an antibody (EphA2-Fc); test: ELISA, inhibition of ephrinA5-AP binding to immobilized EphA2-Fc; representative experiment, triplicates
T1 construct: extracellular domain; Immobilized on the ELISA wells; also called immobilized EphA2

[2] = target: T1, EphA2 extracellular domain fused to the …; test: ELISA, inhibition of ephrinA5-AP binding to immobilized EphA2-Fc
[3] = target: T2, EphA2 endogenously expressed on PC3 prostate cancer cells (UniProt P29317 24-976, limits assumed); test: cell-based or functional assay
[4] = target: T3, EphA2 ligand binding domain (EphA2 LBD), residues 28-200 (UniProt P29317 28-200); test: ITC, soluble EphA2 LBD and peptide
T3 construct: range 28-200; Expressed in E. coli; also called soluble EphA2 LBD; soluble monomeric EphA2 LBD
Procedure: (§1) For ITC, all peptides are dissolved in DMSO and both the EphA2 LBD and the peptides are diluted to obtain a final buffer containing 9.5 mM HEPES, pH 7.9, 95 mM NaCl, and 5% DMSO. The experiments are carried out at 296 K (23° C.) using an ITC200 calorimeter (Microcal). Two-microliter aliquots of a peptide solution are injected into the cell containing 205 μL EphA2 LBD. 200-400 μM peptides are titrated into 20-40 μM EphA2 LBD. Experimental data are analyzed using the Origin software package (Microcal). The integrated values for the reaction heats are normalized to the amount of injected peptide after blank subtraction.

[5] = target: T3, EphA2 ligand binding domain (EphA2 …); test: ITC, EphA2 LBD (200-250 µM) titrated into 10-12.5 µM peptide; single titration shown
[6] = target: T2, EphA2 endogenously expressed on PC3 …; test: cell-based or functional assay; remark: listed apart in the source
[7] = target: T3, EphA2 ligand binding domain (EphA2 …); test: ITC, soluble EphA2 LBD and peptide; remark: listed apart in the source
[8] = target: T3, EphA2 ligand binding domain (EphA2 …); test: ITC, soluble EphA2 LBD and peptide; remark: listed apart in the source
Procedure: as §1

[9] = target: T1, EphA2 extracellular domain fused to the …; test: ELISA, inhibition of ephrinA5-AP binding to immobilized EphA2-Fc; remark: listed apart in the source
[10] = target: T2, EphA2 endogenously expressed on PC3 …; test: cell-based or functional assay; remark: listed apart in the source
[11] = target: the molecule itself; test: quantitative FRET between mTURQ- and EYFP-tagged EphA2 L223R/L254R/V255R in HEK293 cells, no ligand; self-association, monomer-dimer fit
[12] = target: T3, EphA2 ligand binding domain (EphA2 …); test: ITC, EphA2 LBD (200-250 µM) titrated into 10-12.5 µM peptide; single titration shown; remark: listed apart in the source
[13] = target: T3, EphA2 ligand binding domain (EphA2 …); test: as above; remark: listed apart in the source
[14] = target: T1, EphA2 extracellular domain fused to the …; test: ELISA, inhibition of ephrinA5-AP binding to immobilized EphA2-Fc; representative experiment, triplicates; remark: listed apart in the source
Procedure: FIG. 1A-1C illustrates an example of Potency and selectivity of EphA2-targeting dimeric peptides. […] The graphs show averages ±SD from triplicate measurements from a representative experiment. […] The 10 nM peptide concentration is outlined in red. […] Values are normalized to ephrin binding without peptide. The graphs show averages and SDs from triplicate measurements (with each measurement shown as a dot).

T1 sequence (P29317 whole entry, the tested form may be a part): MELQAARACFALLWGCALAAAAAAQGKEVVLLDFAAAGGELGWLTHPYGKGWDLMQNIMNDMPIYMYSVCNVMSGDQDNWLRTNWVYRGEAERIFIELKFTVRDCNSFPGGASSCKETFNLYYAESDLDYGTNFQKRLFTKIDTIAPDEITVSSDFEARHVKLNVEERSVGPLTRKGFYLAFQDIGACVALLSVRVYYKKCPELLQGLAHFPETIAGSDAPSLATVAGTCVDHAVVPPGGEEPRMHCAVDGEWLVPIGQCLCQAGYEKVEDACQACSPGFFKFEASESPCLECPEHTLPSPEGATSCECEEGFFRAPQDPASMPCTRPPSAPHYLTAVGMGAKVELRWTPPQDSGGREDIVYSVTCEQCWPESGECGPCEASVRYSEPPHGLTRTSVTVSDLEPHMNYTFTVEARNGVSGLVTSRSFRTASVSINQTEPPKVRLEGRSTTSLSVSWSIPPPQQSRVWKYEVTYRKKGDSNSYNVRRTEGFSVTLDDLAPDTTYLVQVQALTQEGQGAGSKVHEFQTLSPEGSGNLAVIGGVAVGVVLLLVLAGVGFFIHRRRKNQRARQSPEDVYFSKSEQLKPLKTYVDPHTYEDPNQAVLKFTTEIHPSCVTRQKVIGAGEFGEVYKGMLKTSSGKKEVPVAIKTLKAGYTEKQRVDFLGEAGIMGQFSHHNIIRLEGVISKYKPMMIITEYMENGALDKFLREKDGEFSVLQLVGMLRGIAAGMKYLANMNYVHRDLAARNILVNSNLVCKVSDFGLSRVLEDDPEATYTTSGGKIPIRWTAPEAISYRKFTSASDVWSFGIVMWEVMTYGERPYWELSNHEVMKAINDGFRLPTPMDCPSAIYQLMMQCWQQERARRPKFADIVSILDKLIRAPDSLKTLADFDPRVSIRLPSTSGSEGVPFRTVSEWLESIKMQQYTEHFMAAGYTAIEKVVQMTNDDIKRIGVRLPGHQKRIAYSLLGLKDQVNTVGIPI
T3 sequence (P29317 other isoform, or with tags, fused parts or gaps limits assumed, form in doubt): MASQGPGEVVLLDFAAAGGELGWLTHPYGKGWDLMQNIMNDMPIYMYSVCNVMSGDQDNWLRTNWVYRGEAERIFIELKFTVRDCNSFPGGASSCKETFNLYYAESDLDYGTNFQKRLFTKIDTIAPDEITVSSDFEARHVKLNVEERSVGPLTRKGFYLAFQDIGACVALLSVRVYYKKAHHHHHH

Row | Binder | IC50 [1] [nM] | IC50 [2] [nM] | EC50 pAKT inhib [3] | Etop pAKT inhib [3] | Etop pY588 [3] | βlig (bias factor) [3] | -TΔS [4] [kcal/mol] | Kd [4] [nM] | N (binding stoichiometry) [4] | ΔG [4] [kcal/mol] | ΔH [4] [kcal/mol] | Kd [7] [nM] | N (binding stoichiometry) [7] | N (binding stoichiometry) [8] | IC50 [9] [nM] | Blig (bias factor) [10] | EC50 PY588 [10] [nM] | Emax PY588 [10] | IC50 PAKT [10] [nM] | EC50 pY588 [3] [nM] | also measured
1 | [βAla]WLAYPDSVPYGSGC (also: homodimer, disulfide at 15, other end not in the chain, C-terminally disulfide-linked homodimer made from monomer (9*); also called dimer (1); dimeric peptide (1)) [βA-WLA-YGSGC dimer (C-ter)] | 67 | 71 | 39 nM | 0.9 | 0.49 normalized to ephrinA1-Fc | 0.506 | 16.3 | 2900 | 1.7 | -7.55 | -23.9 | 2900 | 1.7 | 1.7 | 71 | – | – | – | – | – | Kd [5]: 3760 nM; agonistic potency (pY588), fold lower than the other dimers with similar configuration [6]: 10 to 60 fold; Kd [8]: 2900 nM
2 | YSAYPDSVPMMSGSGSK(Biotin) (Previously identified monomer, included for comparison; also called monomer (2*); 2*) [YSA-GSGSK-bio] | – | – | – | – | – | – | – | – | – | – | – | – | – | – | 850 | – | – | – | – | – | –
3 | [βAla]WLAYPDSVPYRPKGGAWLAYPDSVPYRPK-NH2 (N-terminus assumed; SMILES CC(C)C[C@H](NC(=O)[C@H](Cc1c[nH]c2ccccc12)NC(=O)CCN)C(=O)N[C@@H](C)C(=O)N[C@@H](Cc1ccc(O)cc1)C(=O)N1CCC[C@H]1C(=O)N[C@@H](CC(=O)O)C(=O)N[C@@H](CO)C(=O)N[C@H](C(=O)N1CCC[C@H]1C(=O)N[C@@H](Cc1ccc(O)cc1)C(=O)N[C@@H](CCCNC(=N)N)C(=O)N1CCC[C@H]1C(=O)N[C@@H](CCCCN)C(=O)NCC(=O)NCC(=O)N[C@@H](C)C(=O)N[C@@H](Cc1c[nH]c2ccccc12)C(=O)N[C@@H](CC(C)C)C(=O)N[C@@H](C)C(=O)N[C@@H](Cc1ccc(O)cc1)C(=O)N1CCC[C@H]1C(=O)N[C@@H](CC(=O)O)C(=O)N[C@@H](CO)C(=O)N[C@H](C(=O)N1CCC[C@H]1C(=O)N[C@@H](Cc1ccc(O)cc1)C(=O)N[C@@H](CCCNC(=N)N)C(=O)N1CCC[C@H]1C(=O)N[C@@H](CCCCN)C(N)=O)C(C)C)C(C)C) [linear dimer (head-to-tail)] | – | – | 90 pM | 0.87 | 0.76 normalized to ephrinA1-Fc | 0.62 | – | – | – | – | – | – | – | – | – | 0.62 | 0.49 | 0.61 normalized to ephrinA1-Fc | 0.12 | 0.73 | –
4 | L223R/L254R/V255R (receptor, Carries mTURQ (donor) or EYFP (acceptor) at the C-terminus. The tag is not in the letters., mutant of m18 used in the FRET experiments; also called EphA2 L223R/L254R/V255R; clustering interface mutant; not shown: C-terminal fluorescent protein (mTURQ or EYFP) and any linker to it) AQGKEVVLLDFAAAGGELGWLTHPYGKGWDLMQNIMNDMPIYMYSVCNVMSGDQDNWLRTNWVYRGEAERIFIELKFTVRDCNSFPGGASSCKETFNLYYAESDLDYGTNFQKRLFTKIDTIAPDEITVSSDFEARHVKLNVEERSVGPLTRKGFYLAFQDIGACVALLSVRVYYKKCPELLQGLAHFPETIAGSDAPSRATVAGTCVDHAVVPPGGEEPRMHCAVDGEWRRPIGQCLCQAGYEKVEDACQACSPGFFKFEASESPCLECPEHTLPSPEGATSCECEEGFFRAPQDPASMPCTRPPSAPHYLTAVGMGAKVELRWTPPQDSGGREDIVYSVTCEQCWPESGECGPCEASVRYSEPPHGLTRTSVTVSDLEPHMNYTFTVEARNGVSGLVTSRSFRTASVSINQTEPPKVRLEGRSTTSLSVSWSIPPPQQSRVWKYEVTYRKKGDSNSYNVRRTEGFSVTLDDLAPDTTYLVQVQALTQEGQGAGSKVHEFQTLSPEGSGNLAVIGGVAVGVVLLLVLAGVGFFIHRRRKNQRARQSPEDVYFSKSEQLKPLKTYVDPHTYEDPNQAVLKFTTEIHPSCVTRQKVIGAGEFGEVYKGMLKTSSGKKEVPVAIKTLKAGYTEKQRVDFLGEAGIMGQFSHHNIIRLEGVISKYKPMMIITEYMENGALDKFLREKDGEFSVLQLVGMLRGIAAGMKYLANMNYVHRDLAARNILVNSNLVCKVSDFGLSRVLEDDPEATYTTSGGKIPIRWTAPEAISYRKFTSASDVWSFGIVMWEVMTYGERPYWELSNHEVMKAINDGFRLPTPMDCPSAIYQLMMQCWQQERARRPKFADIVSILDKLIRAPDSLKTLADFDPRVSIRLPSTSGSEGVPFRTVSEWLESIKMQQYTEHFMAAGYTAIEKVVQMTNDDIKRIGVRLPGHQKRIAYSLLGLKDQVNTVGIPI | – | – | – | – | – | – | – | – | – | – | – | – | – | – | – | – | – | – | – | – | binding result [11]: binds
5 | Lys-linked dimer (C-ter) (also: bond at chain A 15 to a chain's C-terminus) peptide 1: [βAla]WLAYPDSVPYRPKK peptide 2: [βAla]WLAYPDSVPYRPK | – | – | 0.42 nM | 1 | 0.46 normalized to ephrinA1-Fc | 0.79 | – | – | – | – | – | – | – | – | – | 0.79 | 2.4 | 0.37 normalized to ephrinA1-Fc | 0.63 | 2.6 | –
6 | CGAWLAYPDSVPYR (also: homodimer: N-terminal Cys of two chains joined by disulfide, N-terminally disulfide-linked homodimer made from monomer (15*); also called dimer (4)) [CGA-WLA-YR dimer (N-ter)] | 6.7 | 7.9 | 0.53 nM | 0.9 | 0.94 normalized to ephrinA1-Fc | 0.47 | 23.6 | 104 | 2 | -9.47 | -33.1 | 104 | 2 | 2 | 7.9 | – | – | – | – | – | Kd [12]: 103 nM; agonistic potency (pY588), fold lower than the other dimers with similar configuration [6]: 10 to 60 fold; Kd [8]: 104 nM
7 | CGAWLAYPDSVPYRPK-NH2 (also: homodimer: N-terminal Cys of two chains joined by disulfide) [CGA-WLA-YRPKam dimer (N-ter)] | – | – | 80 pM | 0.97 | 0.98 normalized to ephrinA1-Fc | 0.51 | – | – | – | – | – | – | – | – | – | 0.36 | 0.12 | 0.8 normalized to ephrinA1-Fc | 0.043 | 0.36 | –
8 | Click dimer (N-ter) (not fully specified; propargylglycine (Pra) at position 1, joined by a click linkage to KN3 of the other chain; C-terminal amide; azido-lysine (KN3) at position 1, joined by a click linkage to Pra of the other chain; C-terminal amide) peptide 1: KAWLAYPDSVPYRPK peptide 2: XGAWLAYPDSVPYRPK | – | – | 80 pM | 0.87 | 0.98 normalized to ephrinA1-Fc | 0.5 | – | – | – | – | – | – | – | – | – | 0.93 | 0.22 | 0.71 normalized to ephrinA1-Fc | 0.024 | 0.64 | –
9 | [βAla]WLAYPDSVPYRPKC (also: homodimer, disulfide at 15, other end not in the chain, C-terminally disulfide-linked homodimer made from monomer (19*); also called dimer (2); dimeric peptide (2)) [βA-WLA-YRPKC dimer (C-ter)] | 0.47 | 0.5 | 0.82 nM | 0.86 | 0.5 normalized to ephrinA1-Fc | 0.73 | 19.5 | 380 | 2 | -8.71 | -28.2 | 380 | 2 | 2 | 0.5 | 1.28 | 2.6 | 0.39 normalized to ephrinA1-Fc | 0.22 | 5.6 | Kd [13]: 329 nM; Kd [8]: 380 nM
10 | C(Cam)GAWLAYPDSVPYRPK(Biotin) (also called monomer (10); monomeric peptide (10)) [CcamGA-WLA-YRPK-bio] | – | – | – | 1.06 | 0.48 normalized to ephrinA1-Fc | 0.64 | 25.5 | – | 0.8 | – | -35.1 | – | – | 0.8 | – | – | – | – | – | – | IC50 [14]: 22 nM
